Data as given in the DeepSol protein solubility set.

Assay: soluble on expression in E. coli; label from the status in PepcDB or PDB records

Sequence | soluble on expression in E. coli
MISTRFLRPSVSIFGFGIKSSMSSRAPPKALLQDMVVPPRQLFGPGPSNMADSIAETQSRNLLGHLHPEFVQIMADVRLGLQYVFKTDNKYTFAVSGTGHSGMECAMVNLLEPGDKFLVVEIGLWGQRAADLANRMGIEVKKITAPQGQAVPVEDIRKAIADYKPNLVFVCQGDSSTGVAQPLETIGDACREHGALFLVDTVASLGGTPFAADDLKVDCVYSATQKVLNAPPGLAPISFSDRAMEKIRNRKQRVASFYFDAIELGNYWGCDGELKRYHHTAPISTVYALRAALSAIAKEGIDESIQRHKDNAQVLYATLKKHGLEPFVVDEKLRLPCLTTVKVPEGVDWKDVAGKMMTNGTEIAGGLGATVGKIWRIGTFGINSNSTKIENVVELLSKSIGEKSK | not soluble
VGDFTYSISANLSDFTSKMGNLNGTQFLGNQVKMEGSEYNEWYGYVSDGLFLTQEDVDKSPKLNNSVKVGDIKYKDISGPDGVPDGVISPEYDRVLLGGSLPHYMFGLTFNAAYKGWDFGLTLQGVGSQKSQISAAMIEGLRDNWLNFPTILDGNYWSPKNTDEQNATAKYPRLTRTNRDANFCMSDYWLYNGRYIRLKNLSVGYTLPKAWTTKACMNTVRLYVSGSDLFTISNAPKGWDPEVSTEGYPITTSLIFGVSINF | not soluble
RCFRLEQTQKDARVVSVHAAMSGRSTIGEQQGHSISWRRRLSRANTWPSAAKAQAYITNVATPALTQVAEELCRKGINARLVTTKTQAVEGLDLIVEMGSEQNFRYQLFPVCNPVPQFTRKANASEKETYYRLEVCDLTGSLGYDIYGYTQEQLIDNVLDLYERHLEFLHMHSDLPGSSDLSDGATPPLFS | not soluble
MLLEPLKQLKQADARLNMTQGVLEGVVGEELGVLPGMDSIFSMLELERLVGFFRQATRKNHKGKPFDVIIYDGISTEETLRMIGLSSKTRLYAKYLRSLAEKTDLGRLTSPSIMRFVDESMNINSNKSPFDGMTSPAMWDTLERFLETGASAWRDPERFRSFLVMDPNNPMSVKAALRYWGCTVQAGSHVSGAFAISSSHLTSQIPKADFVPLPFASASVPFTITGLDWDKILLDQANSSIRELLSETVSHGTSLTQTVMFDTAKKLVTLFMPGFEKSEIKLYQYRGGSELLIEAGDQRRVIHLPSQIQGKVGGAKFVDRSLIVTMR | soluble
MGSDKIHHHHHHMELNHLVTGKIALNQYVHRLEQKDVSFYVHYWGAMTNHYNTLLHKHSFYEICYVVRGEGYYLEGDRTYPLREQTIFLSKPEHLHQIKSETGLFLFYVAFELSEDQSSAEWIKVMEEVKQSPFITMQLKDGEPPGLLWKTLMLQAAQPVNAFDKEILSHLSHALILSLIQTFLPYAQRPKQKQPIHTSSALLTEVKLHIKDNLSQPLKLTDVASHFHISGRHLSRLFAAELGVSYSEFVQNEKINKAAELLKSTNLSIKEIAEEIGFSVHYFTRVFSAKIGSSPGLFRSLYKDSKMTAFQINKPFQKIEQAKPHE | not soluble
EDPFQPEIKVRCVCGNSLETDSMIQVIWDELTAFIPCEDPRCHVWQHVGCVILPDKPMDGNPPLPESFYCEICRLT | soluble
MHEVVTISVSQRANHLTTQFFNIQEGYLQLSKEQQVNDSKIFLNSVVDKVSKTISYAPRALLWDARTGNGSLGTYQYSESQDYHFGNEDKFKEQTVIKTHPRIPKSEYQSSLDAGAPLPCLNRENTMYWSDYSKLIYGPSSFNILRNWYHDTENPNQPDFQNLGERKFDRYSIGYDEFTENYLQEFFDGNLHRELEKCDTLQGFNLVSDMESGWGGFSSALLVELRNELPKKAVFSWGHNEDDPFTDDFPMKRLSKKWLPIISNKLRSTINMMQESDLYFPLYAAPGLTNWETAGKSCRIFDSINATISQSNLEQRKTMDYLTTAITLGYSSRNMVTGMVIGDTDYSFCSRVLPFKNSHKPNSTHIFSKSFIDRGNQTHKHHSEPDSRSKMIEMYTHRYFPSDTIPTEFSNDREFVLELESSEKNRDIFKHWNEFVVRYFKNDSDREELKNELSDYASAYESGWYEDEDSGDDDM | not soluble
MGQTLFDKVWNRHVLYGKLGEPQLLYIDLHLIHEVTSPQAFEGLRLQNRKLRRPDLTFATLDHNVPTIDIFNIKDEIANKQITTLQKNAIDFGVHIFDMGSDEQGIVHMVGPETGLTQPGKTIVCGDSHTATHGAFGAIAFGIGTSEVEHVFATQTLWQTKPKN | not soluble
TRINLTLVSELADQHLMAEYRQLPRVFGAVRKHVANGKRVRDFKISPTFILGAGHVTFFYDKLEFLRKRQIELIAECLKRGFNIKDTTVQDISDIPQEFRGDYIPHEASIAISQARLDEKIAQRPTWYKYYGKAIYA | soluble
MDIVLVGCKGFGKEHLRIYSKLGYDVSIVERDSNEAKRCSELFRVYKVYDNYEDALRSGSNIVDLVVPDGLHYEMGSLALKSKKHLLVEKPITPDIDSGISLIQQAEESKLKLMVAEQFYFDPSVNEAIRRINNGEIGKPHTVIVRHQSFRELKGWRNEKSMMGRGILIDEGTHYIDTLLNFGGRYRSLRSFVHRTWDFLGEDTAEAVFNFENGMHGLFFYSWNYPEYPLLPEFEIIGDAGSIYEDIGTKPTEPWDQRKRKTAYGDIIVNGKHIPVEPYDVIEREISGFLNAVEKDEPVPMPPDLALRDIITIDRIYKASSD | not soluble
MPPDDPSGRHGPRIESFLSKVPVVSSNPLVCPYARKCTYGNKCKFYHPERANGQHMSVTERLMKENQQKKSLGAVKSMQYEMFKNKHAALSRTQSLNVVKQLTENMSQLPPTPESPMQMPRQHMQLQQANSAPWQQHTVVQRHGSSPLTPVNRQMNVYPDMYNMSQQQNHQVLPNQHGVIGGQRPPKMTTTVSQTHLFAPSTAVWGHSELSVGPVNTGSDESLAEVRSRVHFHLCNIFPHDFVESVMAANPEEVNAPVLCELIIRAQKEYRK | not soluble
MYNLKNIYASITLYPHEINLVVSDNNNQFHVLYENSIANDELYTHAGITNKAKFKVVLNQLINNANDYLGFKLEKVIVVLAELVDDLEINRFKTDVFFTGYDFNHQDMLSSEKNRFLLKNRHINPNEVLDLVALNYRDLTTDKISKNFKYNCSYRANVIYYTTKNSLVKELKPFLKRNIIVKIDKIVTHHMVLAHSIKQINKNNLFVYLGEHTTDLMLFMDNALVDLVSEPFGRVNFLESDNDSENKALLEFLVDSTARIGDSGSIGMAYTDGSTYKEIRAVTIDDLIQSVNEKTKYLIDFINTNTEIFFQKYGFLPSTLLFYTKSKQLLNNFQLNQNLLSNHFKTVTIFKNEVQFVSRKYLLNCQTIALSWRQDQINVNPTSFALPFYSDKIEKQFKKSFLMLKVHTHINKLVQKLIK | soluble
MSLRKEDKAAYRCLKAIKAGEKLTDAPAEDLPDLDLKPLEEMQNIYREHPEALQASVEIAEQCRVDVSLGQTRLPSFPTPDGTSADDYLTDICMEGLRSRFGKPDERYLRRLQYELDVIKRMKFSDYFLIVWDFMKHAHEKGIVTGPGRGSAAGSLVAYVLYITDVDPIKHHLLFERFLNPERVSMPDIDIDFPDTRRDEVIQYVQQKYGAMHVAQIITFGTLAAKAALRDVGRVFGVSPKEADQLAKLIPSRPGMTLDEARQQSPQLDKRLRESSLLQQVYSIARKIEGLPRHASTHAAGVVLSEEPLTDVVPLQEGHEGIYLTQYAMDHLEDLGLLKMDFLGLRNLTLIESITSMIEKEENIKIDLSSISYSDDKTFSLLSKGDTTGIFQLESAGMRSVLKRLKPSGLEDIVAVNALYRPGPMENIPLFIDRKHGRAPVHYPHEDLRSILEDTYGVIVYQEQIMMIASRMAGFSLGEADLLRRAVSKKKKEILDRERSHFVEGCLKKEYSVDTANEVYDLIVKFANYGFNRSHAVAYSMIGCQLAYLKAHYPLYFMCGLLTSEGHHHHHH | not soluble
MGSDKIHHHHHHMTRILVLYFTRGGHTAKIANAIAEQLTLRGAKVDLVDINSAAATRINWSDYQLVALGACVLYGTYDKSVFQFIEQHVQALSFLPNSFFCVNVVARNPEKRIPENNKYLQKFITLSPWTPADLKIIAGKVDYPSWPWYDRLMIQLIMKITKGPTDPKAVIDYTDWEDVKVYADHLLTLVEVAEPA | not soluble
MQSINLPVDHSKIDANFEGYKVSMNNVHFSSKSLDQNLCLRAPSNEMITLQHMKVFSNDNQLFCDYSKCTDSQQFLYRILDTGHIQAMVYEKKTQIWNTSIVGSIDVGTNASSAFPTNLLFTENNLVVACNGISEITVFLAVSDSNWVKMLEHKVSEQGLSLIEARILNGKLNILAYHVESDDSKKTRSRIHSIRINLDDIDYADSLTVEKSMDLIQNGHFETCTFTNNGEIIFLSSEKPHVEGQQEDMEEKATSGQSKPKPTIEEQSRYLVDIKQLITPFDGDASNYLLFKSTFDYLVHNNHFLEINMKNVALVNALTGDAKQFIVTSNIMEMGYKLTLENLEWTFNRPGFQMRLHSEMLERIKFDENDYSQMETALIKYCSIAREIQLWCGQLFTLFGFHRRITGCDRAQMEHSWEQTGNIIQVAFKLKSEISKEDVKIDTTKTGIRLIVKDLTLLSGKLSGEIDENDVEICADQKTNSLKLKLKSIDDKKWEKLISVEYDTLKSLEDSEIKRTMKGEQVIESDEPMEECDETEGSMAFYWVDQESGKVLKQCDVSGSQVLFTSRQSSTSPALICLRHDVDGLLWSFDESAPSHVATLQAFGYVQASKTSRLWSGCSPNKSLACIVEGNNRVLLYSQKVEVSGSLSNRKTSQTVSHVSKQHLLRVECSDPIRGVQLTDTHLFAATKSHIHVAELNL | not soluble
MGSDKIHHHHHHMHQFLRAIGFSDITKKQLNEVINNIIDKPEKLKVTKDFEGNEFAELSCDVAPNMGITVRGIYNDDDSFDIDYYYPYFTGSEKTTNEIIDIEKHSEKESYAGVCDDPNLGVTLIFYLQNVCDYLSEKAYINREVRAKGAVLSGLSVDGCILLPMKQKKAKTLNTVDSDKKDRKQLIAEARDGDESAMESLTMEDIDLYSSITRRIQNEDILSIVTTYFMPYGIESDQYSVLGDIIELTEEKNIITNEKIYCIKVSCNDIIFSVCINKNDLIGEPMVGRRFKGNIWMQGSICL | not soluble
MTKPVSISKKPRKQHTPEFRNEALKLAERIGVAAAARELSLYESQLYAWRSKQQQQMSSSERESELAAENVRLKRQLAEQAEELSILQKAATYFAKRLK | not soluble
MAHHHHHHMGGAVSFCLQKLNKVSEVEYRPYKEYASYGEQSVPVKGSDDSGRSMIYRMSNTSEEELKRLRDEWYAGGSCLSVLERLCKERGKRTCLAYRKLKTIEKNETTTSDGRKKVLETYVFEPERRTMSYTLFWQNIVDFGRGLHEIGLTKGNTVSIYEETRWQWLCTMYSCWSQGLLVSTVYANLGEDALQYALDEAQCNAIVCNGSKVKDVLAMFKVIEAPKGTKVIYLDELPPSVTSEEYDLYAWSDVVARGKKSEASCRIPSGAESKDELALIMYTSGTTGNPKGVMHTHGSLYCGCMTISQRINDLLGKMKEQEWYCSYLPLAHIMELAVTSVLMMRGVIIGYGSPRTLLDTFAKPCGDLTTYRPLVFVAVPRVFDSMKRAVEEKLPPPGSLKRKIFDKAYEARLKALKKGCDTPFFNKRVFANARKVMGGRVYAMLSGGGPLSESTQEFINVVFGMVIQGWGMTESVACGGIQRTGNLEYNCVGQVLKTAEVQLLDTDEFKHTDQPEPRGEVLLRGPFLFKGYYKQPEQTREALDNDGWLHTGDVASVTPSGTMRIVGRVKALAKNANGEYLALEMLESIYGTNEITVPNGVCVLVHPHRTYIAIIAVTNEKLVKAFMKKHKIENGGFPAILDDAEFLRVVLQSLQKTARDANRCSFEVVQGVKLLNEEWTPENGVLTAAMKLKRRVISENYADFINKLFEKQ | not soluble
